Measurements taken from patent US20250011363A1, “OPTIMIZED SHORTENED PEPTIDE THAT BINDS TO ACETYLCHOLINE RECEPTOR, AND USE THEREOF” (SKINMED CO., LTD., priority 2021, published 2025).

B1: 6mer-2-396 (peptide)
peptide: KWLQRR
B2: 5mer-1030 (peptide)
peptide: RISDK
B3: 5mer-707 (peptide)
peptide: KIEAK
B4: 5mer-700 (peptide)
peptide: RAWER
B5: 5mer-728 (peptide)
peptide: KPHIK
B6: 5mer-1019 (peptide)
peptide: RFKFK
B7: 6mer-2-400 (peptide)
peptide: RQIRRR
B8: 5mer-699 (peptide)
peptide: KKNER
B9: 5mer-727 (peptide)
peptide: KMDAR
B10: 5mer-719 (peptide)
peptide: KISER
B11: 5mer-720 (peptide)
peptide: KDPKR
B12: 6mer-2-394 (peptide)
peptide: KLVLKR
B13: 5mer-1000 (peptide)
peptide: KHCWR
B14: 6mer-2-401 (peptide)
peptide: RSILRK
B15: 5mer-722 (peptide)
peptide: KNHKK
B16: 5mer-703 (peptide)
peptide: KPNWR
B17: 5mer-1004 (peptide)
peptide: RDADR
B18: 5mer-710 (peptide)
peptide: KEKAR
B19: 5mer-1015 (peptide)
peptide: RCWMK
B20: 5mer-723 (peptide)
peptide: RASPR
B21: 5mer-709 (peptide)
peptide: RHTIR
B22: 5mer-1008 (peptide)
peptide: KDSNR
B23: 6mer-2-395 (peptide)
peptide: KWRYRR
B24: 5mer-701 (peptide)
peptide: RNHNK
B25: 5mer-1002 (peptide)
peptide: KEDNK
B26: 5mer-1021 (peptide)
peptide: KITHK
B27: 5mer-1001 (peptide)
peptide: KPCGK
B28: 5mer-714 (peptide)
peptide: RPCAK
B29: 6mer-2-397 (peptide)
peptide: RSIYRK
B30: 5mer-1010 (peptide)
peptide: KCDNK
B31: 5mer-1011 (peptide)
peptide: KTDMK
B32: 5mer-1009 (peptide)
peptide: KMCAK
B33: 5mer-716 (peptide)
peptide: KINVR
B34: 5mer-1003 (peptide)
peptide: RMTVR
B35: 5mer-729 (peptide)
peptide: KEPDK
B36: 5mer-1024 (peptide)
peptide: KIDNK
B37: 5mer-717 (peptide)
peptide: KCKFR
B38: 5mer-732 (peptide)
peptide: KIMWR
B39: 5mer-718 (peptide)
peptide: RNKKK
B40: 5mer-1016 (peptide)
peptide: KYTMR
B41: 5mer-1020 (peptide)
peptide: KCKVK
B42: 5mer-1006 (peptide)
peptide: KEPER
B43: 5mer-708 (peptide)
peptide: KPKAR
B44: 5mer-715 (peptide)
peptide: KCNGR
B45: 5mer-1027 (peptide)
peptide: KNTNR
B46: 5mer-999 (peptide)
peptide: KTKFK
B47: 6mer-2-392 (peptide)
peptide: RQILKR
B48: 5mer-1013 (peptide)
peptide: KCCVK
B49: 5mer-1022 (peptide)
peptide: KIADK
B50: 5mer-1025 (peptide)
peptide: RHKWK
B51: 5mer-1028 (peptide)
peptide: RMAMR
B52: 5mer-1031 (peptide)
peptide: RKEER
B53: 6mer-2-391 (peptide)
peptide: KQYQKR
B54: 6mer-2-399 (peptide)
peptide: RWLTRR
B55: 6mer-2-398 (peptide)
peptide: RQQRRR
B56: 5mer-1014 (peptide)
peptide: RKNKR
B57: 5mer-711 (peptide)
peptide: KECIK
B58: 5mer-705 (peptide)
peptide: RHAKK
B59: 5mer-704 (peptide)
peptide: RFMGK
B60: 5mer-1023 (peptide)
peptide: RYCKK
B61: 5mer-702 (peptide)
peptide: KISHK
B62: 5mer-1017 (peptide)
peptide: RCTWK
B63: 5mer-1018 (peptide)
peptide: KFWAK
B64: 5mer-726 (peptide)
peptide: KATMK
B65: 5mer-725 (peptide)
peptide: RNADR
B66: 5mer-713 (peptide)
peptide: KYPKK
B67: 5mer-1026 (peptide)
peptide: RNAVR
B68: 5mer-721 (peptide)
peptide: RYSKK
B69: 5mer-1029 (peptide)
peptide: KADIK
B70: 5mer-1007 (peptide)
peptide: RDMMR
B71: 6mer-2-393 (peptide)
peptide: RGLQRK
B72: 5mer-724 (peptide)
peptide: KTTAK
B73: 5mer-730 (peptide)
peptide: KFCNK
B74: 5mer-706 (peptide)
peptide: RKMAK
B75: 5mer-1012 (peptide)
peptide: RHKVR
B76: 5mer-712 (peptide)
peptide: RADFK
B77: 5mer-1032 (peptide)
peptide: RHHMR
B78: 5mer-731 (peptide)
peptide: KADHK
B79: 5mer-1005 (peptide)
peptide: RTHGR

Each binder was assayed against acetylcholine receptor (assay: SPR, AchR immobilized on CM5 chip, peptide at 10 uM).

Binder | Binding affinity (RU)
B1 | 122
B2 | 18
B3 | 32
B4 | 17
B5 | 19
B6 | 28
B7 | 154
B8 | 12
B9 | 31
B10 | 21
B11 | 32
B12 | 141
B13 | 20
B14 | 153
B15 | 33
B16 | 22
B17 | 30
B18 | 21
B19 | 30
B20 | 22
B21 | 27
B22 | 11
B23 | 148
B24 | 22
B25 | 12
B26 | 26
B27 | 33

Binder | Binding affinity (RU)
B28 | 32
B29 | 154
B30 | 16
B31 | 25
B32 | 29
B33 | 25
B34 | 11
B35 | 23
B36 | 26
B37 | 20
B38 | 22
B39 | 19
B40 | 28
B41 | 12
B42 | 17
B43 | 20
B44 | 22
B45 | 28
B46 | 19
B47 | 149
B48 | 19
B49 | 29
B50 | 25
B51 | 28
B52 | 13
B53 | 141
B54 | 148

Binder | Binding affinity (RU)
B55 | 141
B56 | 23
B57 | 32
B58 | 15
B59 | 28
B60 | 13
B61 | 30
B62 | 24
B63 | 20
B64 | 33
B65 | 19
B66 | 16
B67 | 20
B68 | 22
B69 | 25
B70 | 30
B71 | 145
B72 | 14
B73 | 27
B74 | 27
B75 | 22
B76 | 18
B77 | 23
B78 | 18
B79 | 30
